Test results: publication PMC7072329, “Discovery of Kynurenines Containing Oligopeptides as Potent Opioid Receptor Agonists” (Biomolecules, 2020)

Target: T1, μ-opioid receptor (rat (endogenous in rat brain)), P33535
T1 chain: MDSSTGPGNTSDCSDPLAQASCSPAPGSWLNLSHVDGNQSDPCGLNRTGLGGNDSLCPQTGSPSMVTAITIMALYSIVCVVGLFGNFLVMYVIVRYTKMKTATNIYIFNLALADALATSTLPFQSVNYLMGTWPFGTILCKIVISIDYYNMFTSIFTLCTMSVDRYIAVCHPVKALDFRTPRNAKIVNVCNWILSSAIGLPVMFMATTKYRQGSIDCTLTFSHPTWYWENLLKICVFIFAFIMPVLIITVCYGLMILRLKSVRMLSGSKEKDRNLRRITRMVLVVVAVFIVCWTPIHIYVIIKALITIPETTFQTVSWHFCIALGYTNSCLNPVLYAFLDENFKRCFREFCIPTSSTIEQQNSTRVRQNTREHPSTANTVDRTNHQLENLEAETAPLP
Assay: radioligand binding; displacement of [^3H]DAMGO from rat brain membrane homogenate by unlabelled ligand (10^-10 to 10^-5 M); 50 mM Tris-HCl pH 7.4, 35 °C, 45 min; non-specific binding with 10 μM naloxone; IC50 converted into Ki by Cheng-Prusoff, one site competition fit

B1: endomorphin-2 (EM-2) (peptide)
chain: YPFF
modifications: not checked
**Q.** For B1, which Ki is on record?
**A.** Its Ki is 3.16 nM.
